Legend:
[1] = target: T1, human TIGIT stably expressed on cells (Jurkat; 293T) (human, UniProt Q495A1 22-244); assay: cell-based or functional assay
T1 sequence: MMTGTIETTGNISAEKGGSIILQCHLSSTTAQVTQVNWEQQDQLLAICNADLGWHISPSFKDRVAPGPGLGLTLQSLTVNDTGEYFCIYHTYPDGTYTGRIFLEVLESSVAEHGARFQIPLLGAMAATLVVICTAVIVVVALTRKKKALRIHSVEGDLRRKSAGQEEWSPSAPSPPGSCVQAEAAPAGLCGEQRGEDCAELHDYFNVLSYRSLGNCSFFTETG

[2] = target: T1, human TIGIT stably expressed on cells …; assay: flow cytometry, whole cell binding assay on human TIGIT expressing cells (upper panel)
[3] = target: T1, human TIGIT stably expressed on cells …; assay: cell-based or functional assay; remark: listed apart in the source
[4] = target: T2, recombinant cynomolgus TIGIT (cyno-TIGIT ECD) (cynomolgus monkey, UniProt A0A7N9I9V4 89-209); assay: ELISA on recombinant cyno-TIGIT
T2 construct: extracellular domain
T2 sequence (A0A7N9I9V4 entry or part of it): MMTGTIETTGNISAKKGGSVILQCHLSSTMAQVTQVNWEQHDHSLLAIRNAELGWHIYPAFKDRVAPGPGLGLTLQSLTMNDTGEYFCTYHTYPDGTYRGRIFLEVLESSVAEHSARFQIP

[5] = target: T3, recombinant human TIGIT extra cellular domain (ECD) protein (human, UniProt Q495A1 22-138); assay: ELISA on recombinant human TIGIT ECD
T3 construct: Purchased protein; it begins with the signal peptide; also called h-TIGIT ECD; human TIGIT ECD
T3 sequence: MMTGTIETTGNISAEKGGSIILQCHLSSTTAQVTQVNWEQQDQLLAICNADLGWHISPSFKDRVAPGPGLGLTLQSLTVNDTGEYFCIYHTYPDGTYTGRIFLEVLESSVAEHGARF

[6] = target: T1, human TIGIT stably expressed on cells …; assay: whole cell binding, flow cytometry, n=3
recombinant mouse-TIGIT = target: T4, recombinant mouse-TIGIT (mouse, UniProt P86176 29-148, limits assumed); assay: ELISA
T4 sequence (looked up): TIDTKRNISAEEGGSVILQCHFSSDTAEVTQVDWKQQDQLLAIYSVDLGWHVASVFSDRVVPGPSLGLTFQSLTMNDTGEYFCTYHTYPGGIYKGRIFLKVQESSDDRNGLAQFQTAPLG

- EC50 (read off the curve); NFAT reporter activity (RLU), human TIGIT blockade reporter assay (lower panel) [1]: ~1 nM
- EC50 (read off the curve) [2]: ~0.5 nM
- EC50, TIGIT blockade NFAT luciferase reporter assay [3]: 0.48 nM
- EC50 (read off the curve) [4]: ~0.1 mg/L
- EC50 (read off the curve) [5]: ~0.1 mg/L
- EC50 [6]: 0.32 nM
- binding result (recombinant mouse-TIGIT): no binding
B1: Bivalent 2A3 antibody (2A3-Fc), 2A3 VHH with human IgG1 CH2 and CH3 domains (Fc fusion)
chain: QVQLVESGGGVVQPGRSLRLSCAASGGSFSSYPMGWFRQAPGKERESVAAISSDMRFTYYADSVKGRFTISRDNSKNTLYLQMNSLRAEDTAVYYCAARDSGVGYYSRAQWYDYWGQGTLVTVSS
notes: Expressed in ExpiCHO, protein A purified; also called 2A3-Fc mAb; 2A3 clone; not shown: human IgG1 CH2 and CH3 domains
